Results published in patent US7125850B2, “Methods of identifying inhibitors of GADD45 polypeptide activity, and inhibitors of such activity” (The United States of America as represented by the …, priority 1999, dated 2006).

Experiments:
RKO cells = assay: Flow cytometry cell cycle analysis of RKO cells after base-damaging agent; assay type: cell-based, human; conditions: parental RKO cells, 25 μg/ml
Protocol: Using flow cytometry analysis, cell cycle distributions of unsynchronized cell populations were performed (for flow cytometry analysis, cells were harvested with 3.5 mM EDTA-PBS buffer, fixed with 70% ethanol for at least 1 hr at 4° C., treated with 20 μg/ml RNase A for 30 min, stained with 60 μg/ml of propidium iodide (PI) for DNA content, and analyzed for cell cycle status with a FACScan cell sorter (Becton Dickinson). At least 10,000 cells were collected. The cell cycle profiles were calculated using the CellQuest and ModFit Lt software. Experiments were repeated at least twice.) The parental human RKO colon carcinoma cells and three isogenic RKO-derived clones stably expressing antisense GADD45 mRNA (discussed above) were analyzed.
Cells were treated with base-damaging agents: either 6.3 Gy of γ-radiation; 5 J/m^2 of UV; or, 25 μg/ml of the base-damaging alkylating agent MMS. These doses for MMS and UV radiation were selected because they were not toxic to these cells in a short-term growth assay. […] The cell cycle status of the cells was then analyzed and quantitated by flow cytometric analysis profile (as described above). […] IR caused a significant accumulation in G2/M with concomitant reductions in G1 and S in all four cell lines.

Cdc2 = Cdc2 (Homo sapiens, UniProt P06493); assay: Co-immunoprecipitation of Myc-tagged GADD45 with Cdc2 antibody in transfected RKO cells; assay type: cell-based; design: endogenous in cells; host or cells: RKO (human colon carcinoma)
From the text: In order to determine if GADD45 associates with Cdc2 in vivo, RKO cells were transfected with Myc-epitope-tagged expression vectors. To construct the Myc-tag-GADD45 expression vector, internal GADD45 primers were designed to contain an in-frame 5′ NdeI site and were used to amplify the desired regions from a human GADD45 cDNA construct. PCR products were cloned into the pcrII vector using the TA Kit (Invitrogen, Carlsbad, Calif.) and sequenced prior to subcloning into XhoI/XbaI cut pCS2MT. This allowed expression of the GADD45 constructs tagged with 6 copies of the Myc epitope recognized by the monoclonal 9E10 antibody at the amino-terminus (Rupp (1994) Genes Dev. 8:1311–1323; Turner (1994) Genes Dev. 8:1434–1447).
For mammalian cell transfection, 10^6 RKO cells were seeded onto 100 mm plates the day before transfection. […]
Lysates from cells expressing Myc-tag-GADD45 fusion protein or unfused Myc-tag were immunoprecipitated with antibodies to c-myc and Cdc2 (both from Santa Cruz Biotech.). […] Following immunoblot analysis, the Myc-tagged GADD45 protein was detected in both the cell lysate and after immunoprecipitation with anti-Myc antibody. […] After immunoprecipitation with Cdc2 antibody, Myc-tagged GADD45 was also detected. No GADD45 was detected with (i.e., was co-immunoprecipitated by) the control antibodies. […]

cellular Cdc2 = target: T1, cellular Cdc2 (Homo sapiens, UniProt P06493); assay: GST pull-down from RKO cell lysate, immunoblot for Cdc2; assay type: binding; conditions: 100 ng protein, 1 mg RKO cellular protein
T1 construct: GST-GADD45 fusion protein were incubated with one mg of RKO cellular protein; endogenous in cells; host or cells: RKO (human colon carcinoma)
From the text: For these experiments, a recombinant glutathione-S-transferase (GST)/GADD45 fusion protein was constructed. The GADD45 insert was PCR amplified from pHul45B2 using the following primers: (SEQ ID NO:3) 5′[…] 3′ and (SEQ ID NO:4) 5′[…] 3′. Products were cloned into a pcrII vector using the TA cloning kit (Invitrogen, San Diego, Calif.). A representative clone was confirmed by sequencing. The selected insert was removed by XhoI and NotI digestion, gel purified using the Wizard DNA Purification Kit (Promega, Madison, Wis.), and ligated into the XhoI/ NotI digested pGEX4T vector (Pharmacia, Piscataway, N.J.). GST-GADD45 fusion protein induction was prepared from freshly transformed BL21 bacterial cells (Novagen). 150 ml of overnight culture was diluted into 1L of LB with ampicillin and grown at 37° C. to late growth phase (OD600 was approximately 0.8). […]
To detect binding of cellular Cdc2 to GST-tagged GADD45, 100 ng of GST or GST-GADD45 fusion protein were incubated with one mg of RKO cellular protein for 4 hr at […]. […] Antibody was detected by a chemiluminescence system in accordance with the instructions of the manufacturer (Amersham, Buckinghamshire, England)
(§1) GST-GADD45 fusion protein or GST alone, which were linked to Sepharose beads, were incubated with cellular lysates, isolated, and analyzed by immunoblotting, as described above.

Cdk2 = target: T2, Cdk2 (Homo sapiens, UniProt P24941); assay: GST pull-down from RKO cell lysate, immunoblot for Cdk2; assay type: binding
T2 construct: GST-GADD45 fusion protein were incubated with one mg of RKO cellular protein; endogenous in cells; host or cells: RKO (human colon carcinoma)

cyclin B1 = target: T3, cyclin B1 (Homo sapiens, UniProt P14635); assay: GST pull-down from RKO cell lysate, immunoblot for cyclin B1; assay type: binding; conditions: 100 ng protein, 1 mg RKO cellular protein
T3 construct: endogenous in cells; host or cells: RKO (human colon carcinoma)
Protocol: To detect binding of cellular Cdc2 to GST-tagged GADD45, 100 ng of GST or GST-GADD45 fusion protein were incubated with one mg of RKO cellular protein for 4 hr at […]. Complexes were then washed three times with lysis buffer and loaded onto a 12% SDS-PAGE gel. Following electrophoresis, the proteins were electrophoretically transferred to Immobin membranes (Millipore, Bedford, Mass.). The membranes were blocked for 30 min in 5% nonfat milk and then incubated with anti-Cdc2 (Santa Cruz Biotechnology, Santa Cruz, Calif.) and anti-cyclin B1 (Pharmingen, San Diego, Calif.) monoclonal mouse antibodies. Antibody was detected by a chemiluminescence system in accordance with the instructions of the manufacturer (Amersham, Buckinghamshire, England)
as §1

T1 sequence (P06493 whole entry, the tested form may be a part): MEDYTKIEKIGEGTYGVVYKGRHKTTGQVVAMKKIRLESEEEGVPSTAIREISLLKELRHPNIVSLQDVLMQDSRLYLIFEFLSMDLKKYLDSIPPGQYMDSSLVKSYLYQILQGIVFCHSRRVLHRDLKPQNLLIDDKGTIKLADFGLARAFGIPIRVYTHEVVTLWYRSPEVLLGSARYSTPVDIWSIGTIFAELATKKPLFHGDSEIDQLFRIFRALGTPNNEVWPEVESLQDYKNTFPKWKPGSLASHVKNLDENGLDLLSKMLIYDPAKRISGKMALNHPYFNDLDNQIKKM
Chain of Cdc2 (P06493 whole entry): as the sequence (P06493 whole entry, the tested form may be a part) above
T3 sequence (P14635 whole entry): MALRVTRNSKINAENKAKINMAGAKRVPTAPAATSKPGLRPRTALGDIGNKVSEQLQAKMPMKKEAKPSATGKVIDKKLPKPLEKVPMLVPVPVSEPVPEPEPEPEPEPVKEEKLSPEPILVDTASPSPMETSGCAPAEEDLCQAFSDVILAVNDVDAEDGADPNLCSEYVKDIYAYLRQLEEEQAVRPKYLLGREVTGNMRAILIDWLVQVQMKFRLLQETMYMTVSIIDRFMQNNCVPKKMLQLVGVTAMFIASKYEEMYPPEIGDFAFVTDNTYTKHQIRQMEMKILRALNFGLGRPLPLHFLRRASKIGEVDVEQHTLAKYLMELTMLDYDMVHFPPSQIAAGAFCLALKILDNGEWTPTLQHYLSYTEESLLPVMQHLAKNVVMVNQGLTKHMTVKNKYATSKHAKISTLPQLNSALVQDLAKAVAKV

Molecule: COS(C)(=O)=O [MMS, methyl methanesulfonate]
- cell cycle accumulation (RKO cells): accumulated in S and G2/M

B1: Myc-tagged GADD45: GADD45 tagged with 6 copies of the Myc epitope, expressed in RKO cells (protein)
chain: MTLEEFSAGEQKTERMDKVGDALEEVLSKALSQRTITVGVYEAAKLLNVDPDNVVLCLLAADEDDDRDVALQIHFTLIQAFCCENDINILRVSNPGRLAELLLLETDAGPAASEGAEQPPDLHCVLVTNPHSSQWKDPALSQLICFCRESRYMDQWVPVINLPER
modifications: left off: small tags and cut ends
- detection after immunoprecipitation with Cdc2 antibody (Cdc2): also detected

B2: GST-GADD45: recombinant glutathione-S-transferase (GST)/GADD45 fusion protein on Sepharose beads (protein)
chain: TLEEFSAGEQKTERMDKVGDALEEVLSKALSQRTITVGVYEAAKLLNVDPDNVVLCLLAADEDDDRDVALQIHFTLIQAFCCENDINILRVSNPGRLAELLLLETDAGPAASEGAEQPPDLHCVLVTNPHSSQWKDPALSQLICFCRESRYMDQWVPVINLPER
modifications: left off: a dimerising Fc or GST
notes: recombinant glutathione-S-transferase (GST)/GADD45 fusion protein on Sepharose beads
- association with cellular Cdc2 (cellular Cdc2): found to associate
- association with Cdk2 (Cdk2): No association
- association with cyclin B1 (cyclin B1): did not associate
